Measured values: article PMC8826899

What was measured:
[1] = molecular target: HSPA8-GST (recombinant full-length monkey HSPA8 with GST tag) (monkey)
[2] = molecular target: HSPA8-GST (recombinant full-length monkey HSPA8 with GST tag) (monkey); remark: listed apart in the source

Substance: PRRSV virions (PRRSV-2 strain BJ-4) (complex)
- PRRSV infectivity (IFA) in MARC-145 cells whose surface HSPA8 (endogenous) was blocked with 16- and 32-fold diluted mouse HSPA8-GST pAbs [1]: 75 % decrease
- PRRSV titers (TCID50) in MARC-145 cells whose surface HSPA8 (endogenous) was blocked with 16-fold diluted mouse HSPA8-GST pAbs; decrease (log10TCID50/mL) [1]: 1
- PRRSV RNA abundance (RT-qPCR, 24 h) in MARC-145 cells after PRRSV (0.1 MOI) was pre-incubated with soluble HSPA8-GST (0.5, 1, 2 μM); GST protein 2 μM as control [2]: 50 % reduction
